Assay results: the DeepSol protein solubility set

assay: soluble on expression in E. coli; label from the status in PepcDB or PDB records

| Sequence | soluble on expression in E. coli |
| --- | --- |
| MKKHTLALCLAAILAPAAHAAEIKVEDLTWKAITFGQSTDMNFGSTILPEKVGVNQVTVNGEAVAAGKLASTFTIESRGGKLANSHEGLTFYYTELPTDVNFTLSADVVLEQLGPETGATPNRQEGAGLMVRDILGAERLVPQPEGHEEFPSASNMVMNLMRSHTRANDGMTNINASFREGVYQPWGTPGNRLSRVDYVEGVPYGTAETYRMTLTRTNDGFKVSYRNGEKFVEQAVKGANANIVEMQNSDSQYVGFFASRNAKMTVSNVDLQLAAADTVDAPKYAAKQGELVFQIASSPRSATKEYPVQARANYSGEFEVLHNDKVVAKQTVTAGELFSQWLTLDSGANQMEVRFTAIDGPNKETQAHRYSVDVVSLPDPMTL | not soluble |
| MITNDHDRRKQISVRGIAQVENVSNIKKAFNRHLHFSIIKDRNVATDRDYYFALANTVRDHLVSRWIRTQQHYYDKDPKRVYYLSLEFYMGRTLSNTMMNLGIQATVDEALYQLGLDIEELQEIEEDAGLGNGGLGRLAACFLDSMATLGIPAYGYGLRYEYGIFKQLIRDGWQIEEPDDWLRFGNPWEKARPEYMLPVNFYGKVVKEDGKSKWIDTQVVFAMPYDTPVPGYKNNIVNTLRLWSAKAENHFHLKFFNDGDYVQAVMDRNLSENITRVLYPNDNMFLGKELRLKQQYFLVAATLQDIIRRFKSSIYGNREAVRVNFETFPDKVAIQLNDTHPSIGIPELIRLLIDVEGLTWDQAWDICIKTYAYTNHTLLPEALERWPVSLMQNLLPRHLEIIYEINQKFMNTISQRFPGDFDRMRRMSIVEEADQFGEKRINMAHLCIVASHAINGVAALHSDLLKSSTFRDFYEFYPDRFQNKTNGITPRRWLLLSNPSLADLIVEKIGESWITNLDELQKLKEYANDAGFLDSIRRVKLENKQQVAQYLSDEYNVNVNAASLFDVHVKRIHEYKRQLLNILHVIALYNRIKENPNIDMVKRTVLYGGKAAPGYHMAKQIIRLITAVAEQVNNDAIVGDRLKVIFLENYRVSMAEKIIPASDLSEQISTAGTEASGTGNMKFMLNGALTIGTLDGANVEMAEEMGDENIFIFGMNVEEVEALTKRGYSSQEFIDKSPMLKQIIEQIEGGMFTPEDPDQLKDLSNMLRYHDRFMVCADFDAFIEAQDKVSATFRDQEKWSRMALYNIASTGKFSTDRTITEYAREIWGIDQFESSLPAPYENEKSE | not soluble |
| MGSDKIHHHHHHMSDKKYNVDEGEIAKFSRIADKWWDKSGEFKTLHDINPLRLDYIDGHADLCGKRVLDVGCGGGILAESMARRGAAFVKGIDMAEQSLETARLHAALNNVADIEYECIRVEDLAEAEPHSFDVVTCMEMMEHVPDPAAIVRACAKLVKPDGMVFFSTINKNPKSYLHLIVAAEYLLKFVPKGTHDWKKFIVPAELARMCRQAGLDVADTKGMTYHVLSQTYALCDSTDVNYMFACRPAF | not soluble |
| MKRHFRPSLIKTEAWEGYEFADKEIKITESTDCYGAVLWPSAMVLCHFLDSHRDQYNLLDKKIIELGAGTGLVTIVTSLLGAQVTSTDLPDVLANLRHNVNRNTRGRCRHEPQVTELIWGQQLEERFPRYTCQYDYILAADVVYGHPYLQELLETFIHLCSDHTVILWAMRFRLDPENRFVHTFQEHFHLEELYDLPSLSIKLYRAHKR | not soluble |
| MGSDKIHHHHHHMKLITVSGPPSSGKTSLIIKTVESLKAQNIKVGIVKFDCLYTDDDILYEKAGILVKKGLSGSVCPDHFFASNIEEVVQWGKTNNLDLLITESAGLCNRCSPYLKDIKAVCVIDNLSGINTPKKIGPMLKLADIVVITKGDIVSQAEREVFASRVQTVNPKAAIIHINGLTGQGTYEFGSLIMDKNEEIDTVIERKLRFPLPSAVCSYCLGETRIGNNYQLGNIRKINFEEQ | not soluble |
| MSLSVTIFSEFESEVRSYCRAFPAVFSRAKGEYLLAEDGRKFLDFFAGAGSLNYGHNDDDMIEAAISYMRQDGVLNGLDLNTSAKAEFIETFRTLVLQPRDLNYKLQFTGPTGANAVEAAMKLARKVTQRPDIACFSGGYHGMSLGALSVTANAVKRASLVVQVPGVVRLPYEGAIEGSVASQLRVLQDMLCRPGFGIDPPAAFLLECVQGEGGVNCASAEWLQGVAALARKLGALLIVDEIQTGCGRTGRFFSFEHACIEPDIICLSKSLGGGGLPFSLNLIKPEIDIWNPGEHNGTFRGNNLAMVMATAALRKYWATPHFAHEVEEKGLAVAACLKNALQAFDGQVRVVGKGLMIGLRFQHAEHAREASRRLFESGLLIEVCGPRNEVLKLMPVLTMDRQAMLAAASRIAACAQALLSRSLESETEGHHHHHH | soluble |
| MGSSHHHHHHSSGLVPRGSTKVKYVDKIHIGNYEIDAWYFSPFPEDYGKQPKLWLCEYCLKYMKYEKSYRFHLGQCQWRQPPGKEIYRKSNISVHEVDGKDHKIYCQNLCLLAKLFLDHKTLYFDVEPFVFYILTEVDRQGAHIVGYFSKEKESPDGNNVACILTLPPYQRRGYGKFLIAFSYELSKLESTVGSPEKPLSDLGKLSYRSYWSWVLLENLRDFRGTLSIKDLSQMTSITQNDIISTLQSLNMVKYWKGQHVICVTPKLVEEHLKSAQYKKPPITVDSVCLKWAPPK | soluble |
| MNPIVKAPTLNDLPAPPPGKTGWPWTEQNEALPEKMPDGSDWPKISIVTPSYNYGQFIEETIRSVLLQGYPNLEYIVVDGGSTDNTVTIIRKYEKYLKYWASEPDHGQTDAINKGYRYCSGDVFAWLNADDLYYDQSTLLKVINFYQKGYDLIVGECLNINADGTHFNQAITSTEKSDPTYFKKYLRYWSSGFLPQPAIFVKKEMADQCFPLSIELYYAMDFQFFLRVLNQEPKSVWIQEKLTRLRWHEDSKTMGTISRIDFHAIVPEPEVHKVALAEAENLPTWLEKIFFRIQAFDYLSLQPYINSLDNFHWLQITKTIVKRPTLAVWPLFWKIFFRSLLGEQIYKLLKRTIRTNLEHHHHHH | not soluble |
| SHMQLKFAECLEKKVDMSKVNLEVIKPWITKRVTEILGFEDDVVIEFIFNQLEVKNPDSKMMQINLTGFLNGKNAREFMGELWPLLLSAQENIAGIPSAFLELKKEEIKQR | soluble |
| MGSDKIHHHHHHMAAQNAFEQKKRAILNEIDSTQPDLSPKGTIDELCLPIIDLINASADMVTTSSCSGRVSVFLEGTKSYNGEVKIGGKGQGGKWLYVTHDREKVIGWLDELKSKSEFSFELSGKEIPTEKVTGSIRYILYKYEPFILHVKCRDFQAASKLYNTAMSCGFRESGIGSNNLVAIRINIKLDVPLGYLDETSGTLKFFVTPEYVSVLDSLSLSKFDENTRKMQALYDRIEKELINCAPDVNSKVNITPIETKEERRERKKREGMERQRQLKSPQNVL | not soluble |
| MTMNIAVVSGRIAPELTLPGLNFSRAYAPSTDFRSARLGLLTGQYPQRQPVTRFASLIGTVAEDFSPADVHIIERAEITPDLLDQAHDSGAATFFVGHPTIDDHRVRMSLLWPGVTDTNLPHDTIDGVVTCNELVSTLDIAPTLAAIAGYDVRPNAQLSFDGMNLTPVIRYGATGHGGLFFDDGTVITPTEVRRQANDPEWTMWHQFMNMGPLQ | not soluble |
| MKLAVYSTKQYDKKYLQQVNESFGFELEFFDFLLTEKTAKTANGCEAVCIFVNDDGSRPVLEELKKHGVKYIALRCAGFNNVDLDAAKELGLKVVRVPAYDPEAVAEHAIGMMMTLNRRIHRAYQRTRDANFSLEGLTGFTMYGKTAGVIGTGKIGVAMLRILKGFGMRLLAFDPYPSAAALELGVEYVDLPTLFSESDVISLHCPLTPENYHLLNEAAFEQMKNGVMIVNTSRGALIDSQAAIEALKNQKIGSLGMDVYENERDLFFEDKSNDVIQDDVFRRLSACHNVLFTGHQAFLTAEALTSISQTTLQNLSNLEKGETCPNELV | soluble |
| MKTINSVDTKEFLNHQVANLNVFTVKIHQIHWYMRGHNFFTLGEKMDDLYSEFGEQMDEVAERLLAIGGSPFSTLKEFLENASVEEAPYTKPKTMDQLMEDLVGTLELLRDEYKQGIELTDKEGDDVTNDMLIAFKASIDKHIWMFKAFLGKAPLE | soluble |
| MGSSHHHHHHSSGLVPRGSHMVAFLRGDRRKENSDNFRTRNSILGDIINSSPATVGKAQYLTYLAQPIEPSGNYSTFAEAQKTRAPRVYVGANDGMLHGFDTDGNETFAFIPSAVFEKMHKLTARGYQGGAHQFYVDGSPVVADAFFGGAWHTVLIGSLRAGGKGLFALDVTDPANIKLLWEIGVDQEPDLGYSFPKPTVARLHNGKWAVVTGNGYSSMNDKAALLIIDMETGAITRKLEVTGRTGVPNGLSSPRLADNNSDGVADYAYAGDLQGNLWRFDLIAGKVNQDDPFSRANDGPAVASSFRVSFGGQPLYSAVDSAGAAQAITAAPSLVRHPTRKGYIVIFGTGKYFENADARADTSRAQTLYGIWDQQTKGEAAGSTPRLTRGNLQQQTLDLQADSTFASTARTIRIASQNPVNWLNNDGSTKQSGWYLDFMVNGTLKGEMLIEDMIAIGQVVLLQTITPNDDPCADGASNWTYGLDPYTGGRTSFTVFDLARQGVVDSKSDYSYNKQNVAVSGTEQKGLGGLTLSTNEQGNPEVCSSGECLTVNPGPNTRGRQNWRPIEGKN | soluble |
| SDLSALRVEEVQNVINAMQKILECPICLELIKEPVSTKCDHIFCKFCMLKLLNQKKGPSQCPLCKNDITKRSLQESTRFSQLVEELLKIICAFQLDTGLEYANSYNFAKK | soluble |
| MSPVDFKDKVVIITGAGGGLGKYYSLEFAKLGAKVVVNDLGGALNGQGGNSKAADVVVDEIVKNGGVAVADYNNVLDGDKIVETAVKNFGTVHVIINNAGILRDASMKKMTEKDYKLVIDVHLNGAFAVTKAAWPYFQKQKYGRIVNTSSPAGLYGNFGQANYASAKSALLGFAETLAKEGAKYNIKANAIAPLARSRMTESIMPPPMLEKLGPEKVAPLVLYLSSAENELTGQFFEVAAGFYAQIRWERSGGVLFKPDQSFTAEVVAKRFSEILDYDDSRKPEYLKNQYPFMLNDYATLTNEARKLPANDASGAPTVSLKDKVVLITGAGAGLGKEYAKWFAKYGAKVVVNDFKDATKTVDEIKAAGGEAWPDQHDVAKDSEAIIKNVIDKYGTIDILVNNAGILRDRSFAKMSKQEWDSVQQVHLIGTFNLSRLAWPYFVEKQFGRIINITSTSGIYGNFGQANYSSSKAGILGLSKTMAIEGAKNNIKVNIVAPHAETAMTLSIMREQDKNLYHADQVAPLLVYLGTDDVPVTGETFEIGGGWIGNTRWQRAKGAVSHDEHTTVEFIKEHLNEITDFTTDTENPKSTTESSMAILSAVGGD | soluble |
| MSLAASKGNLLSPDRILTVAHRGASGYVPEHTILSYETAQKMKADFIELDLQMTKDGKLIVMHDEKLDRTTNGMGWVKDHTLADIKKLDAGSWFNEAYPEKAKPQYVGLKVPTLEEVLDRFGKHANYYIETKSPDTYPGMEEKLIASLQKHKLLGKHSKPGQVIIQSFSKESLVKVHQLQPNLPTVQLLEAKQMASMTDAALEEIKTYAVGAGPDYKALNQENVRMIRSHGLLLHPYTVNNEADMHRLLDWGVTGVFTNYPDLFHKVKKGYEGHHHHHH | soluble |
| HRIDTKTAQKDKFGAGKNGFTRGNPQTGTPATDLDDDYFDMLQEELCSVVEASGASLEKGRHDQLLTALRALLLSRKNPFGDIKSDGTVQTALENLGLGEGAKLNAATATLGRTGFIAIPVMIGGIEQSVIIQWGWNAAKASASGGDGNTVVFPVAFNNACVAVVANYDNVSAPINAVATGGYTTTSFLLRCAAQTGSYYYNWIAIGY | not soluble |
